# According to patent publication US20050256058A1 (GEORGIA TECH RESEARCH, published 2005):
# Numbered stars: 1 amine (or outer) side, 2 acyl side, 3 side chain; on linkers, the order of the positions; unused ones are H or OH. Square brackets hold non-standard residues; d marks the D form. * marks the point of attachment. CH═CH‑CON(CH2Ph)2 = O=C(/C=C/*)N(Cc1ccccc1)Cc1ccccc1; AAsp = aza-Asp, O=C(N(CC(=O)[*:3])N[*:1])[*:2]; Cbz = O=C(OCc1ccccc1)*
# T1: Caspase-7 (UniProt P55210 24-303)
# T1 sequence (looked up): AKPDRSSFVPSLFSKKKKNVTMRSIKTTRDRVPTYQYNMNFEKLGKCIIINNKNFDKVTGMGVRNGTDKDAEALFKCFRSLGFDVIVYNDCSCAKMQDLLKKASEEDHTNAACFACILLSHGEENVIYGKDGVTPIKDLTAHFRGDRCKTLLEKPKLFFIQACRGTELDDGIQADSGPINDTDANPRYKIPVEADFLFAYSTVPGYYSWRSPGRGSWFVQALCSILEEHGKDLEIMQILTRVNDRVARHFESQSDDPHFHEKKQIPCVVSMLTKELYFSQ
# T2: Caspase-6 (UniProt P55212 24-293, limits assumed)
# T2 sequence (looked up): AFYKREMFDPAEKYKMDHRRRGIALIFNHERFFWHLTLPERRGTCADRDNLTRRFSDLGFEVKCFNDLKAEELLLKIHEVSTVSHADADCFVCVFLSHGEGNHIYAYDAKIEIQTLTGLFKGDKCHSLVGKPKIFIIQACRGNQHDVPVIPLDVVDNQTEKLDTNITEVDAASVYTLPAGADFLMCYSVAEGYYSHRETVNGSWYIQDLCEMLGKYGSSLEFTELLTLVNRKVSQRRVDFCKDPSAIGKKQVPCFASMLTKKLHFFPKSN
# T3: Caspase-10 (UniProt Q92851 220-521, limits assumed)
# T3 sequence (looked up): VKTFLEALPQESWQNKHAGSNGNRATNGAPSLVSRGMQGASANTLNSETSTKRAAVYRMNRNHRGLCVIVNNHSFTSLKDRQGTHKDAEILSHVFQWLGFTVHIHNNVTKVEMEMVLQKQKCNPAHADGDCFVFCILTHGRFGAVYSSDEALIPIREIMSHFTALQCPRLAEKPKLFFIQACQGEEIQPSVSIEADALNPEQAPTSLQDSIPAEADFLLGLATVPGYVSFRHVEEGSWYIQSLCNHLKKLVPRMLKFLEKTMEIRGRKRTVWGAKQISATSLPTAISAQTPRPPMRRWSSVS
# T4: Caspase-2 (UniProt P42575 170-452, limits assumed)
# T4 sequence (looked up): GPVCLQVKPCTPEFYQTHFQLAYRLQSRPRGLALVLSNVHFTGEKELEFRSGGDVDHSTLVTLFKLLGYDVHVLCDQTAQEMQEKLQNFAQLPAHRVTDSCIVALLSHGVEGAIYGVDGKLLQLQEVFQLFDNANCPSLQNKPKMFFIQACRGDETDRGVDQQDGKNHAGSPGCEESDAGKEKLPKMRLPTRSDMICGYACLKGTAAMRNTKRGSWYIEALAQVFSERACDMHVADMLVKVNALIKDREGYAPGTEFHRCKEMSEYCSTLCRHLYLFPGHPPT
# T5: Caspase-9 (UniProt P55211 1-416, limits assumed)
# T5 sequence (looked up): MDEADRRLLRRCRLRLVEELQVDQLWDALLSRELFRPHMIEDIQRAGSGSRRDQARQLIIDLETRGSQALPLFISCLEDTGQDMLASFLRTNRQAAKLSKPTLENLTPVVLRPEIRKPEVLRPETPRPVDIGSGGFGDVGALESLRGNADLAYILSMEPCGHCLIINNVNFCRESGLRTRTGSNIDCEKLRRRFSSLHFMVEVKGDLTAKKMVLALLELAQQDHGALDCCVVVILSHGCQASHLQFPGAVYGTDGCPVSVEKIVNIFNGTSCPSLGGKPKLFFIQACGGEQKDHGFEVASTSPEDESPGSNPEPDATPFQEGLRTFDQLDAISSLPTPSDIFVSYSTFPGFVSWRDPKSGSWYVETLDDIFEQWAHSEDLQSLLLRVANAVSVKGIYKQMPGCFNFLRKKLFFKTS
# T6: Caspase-3 (UniProt P42574 29-277)
# T6 sequence (looked up): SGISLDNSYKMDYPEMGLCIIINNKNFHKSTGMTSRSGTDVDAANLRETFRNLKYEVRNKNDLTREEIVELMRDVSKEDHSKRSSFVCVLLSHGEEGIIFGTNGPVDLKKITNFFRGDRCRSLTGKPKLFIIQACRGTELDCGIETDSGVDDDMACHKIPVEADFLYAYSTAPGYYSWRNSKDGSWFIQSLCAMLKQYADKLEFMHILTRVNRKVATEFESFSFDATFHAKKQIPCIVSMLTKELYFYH
# Tests used:
# Test in all cases: cell-based or functional assay
# Caspase-7 = biological target: T1, Caspase-7
# Caspase-6 = biological target: T2, Caspase-6
# Caspase-10 = biological target: T3, Caspase-10
# Caspase-2 = biological target: T4, Caspase-2
# Caspase-9 = biological target: T5, Caspase-9
# Caspase-8 = Caspase-8 (UniProt Q14790 217-479)
# Caspase-3 [1] = biological target: T6, Caspase-3
# Caspase-3 [2] = biological target: T6, Caspase-3; remark: listed apart in the source
# Caspase-8, sequence (Q14790 217-479 limits assumed): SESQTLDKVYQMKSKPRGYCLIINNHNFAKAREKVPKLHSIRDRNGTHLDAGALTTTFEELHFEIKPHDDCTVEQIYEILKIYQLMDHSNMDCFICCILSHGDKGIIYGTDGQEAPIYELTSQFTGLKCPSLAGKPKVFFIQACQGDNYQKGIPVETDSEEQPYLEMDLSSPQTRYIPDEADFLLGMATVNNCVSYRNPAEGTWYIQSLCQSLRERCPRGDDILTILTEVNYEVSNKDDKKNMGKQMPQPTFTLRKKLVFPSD
Binder,k2 (Caspase-7),k2 (Caspase-6),k2 (Caspase-10),k2 (Caspase-2),k2 (Caspase-9),k2 (Caspase-8),k2 (Caspase-3 [1]),fold more potent inhibition than of caspase-6 (Caspase-3 [2]),fold more potent inhibition than of caspase-8 (Caspase-3 [2])
Cbz-LET[AAsp]-{CH═CH‑CON(CH3)CH2‑1‑Napth} [Cbz-Leu-Glu-Thr-AAsp-CH═CH-CON(CH3)CH2-1-Napth],1100 M⁻¹ s⁻¹,21700 M⁻¹ s⁻¹,13600 M⁻¹ s⁻¹,290 M⁻¹ s⁻¹,5030 M⁻¹ s⁻¹,179000 M⁻¹ s⁻¹,11200 M⁻¹ s⁻¹,,
Cbz-DEV[AAsp]-{CH═CH‑CON(CH2Ph)2} (SMILES CC(C)[C@H](NC(=O)[C@H](CCC(=O)O)NC(=O)[C@H](CC(=O)O)NC(=O)OCc1ccccc1)C(=O)NN(CC(=O)O)C(=O)/C=C/C(=O)N(Cc1ccccc1)Cc1ccccc1) [Cbz-Asp-Glu-Val-AAsp-CH═CH-CON(CH2Ph)2],359000 M⁻¹ s⁻¹,5100 M⁻¹ s⁻¹,6300 M⁻¹ s⁻¹,110 M⁻¹ s⁻¹,450 M⁻¹ s⁻¹,8600 M⁻¹ s⁻¹,3e+06 M⁻¹ s⁻¹,588 fold,348 fold

# Next, values leading:
k2 (Caspase-7),k2 (Caspase-6),k2 (Caspase-10),k2 (Caspase-2),k2 (Caspase-9),k2 (Caspase-8),k2 (Caspase-3 [1]),fold more potent inhibition than of caspase-6 (Caspase-3 [2]),fold more potent inhibition than of caspase-8 (Caspase-3 [2]),Binder
760 M⁻¹ s⁻¹,14100 M⁻¹ s⁻¹,8080 M⁻¹ s⁻¹,110 M⁻¹ s⁻¹,1100 M⁻¹ s⁻¹,129000 M⁻¹ s⁻¹,8630 M⁻¹ s⁻¹,,,Cbz-LET[AAsp]-{CH═CH‑CON(CH2Ph)2} (SMILES CC(C)C[C@H](NC(=O)OCc1ccccc1)C(=O)N[C@@H](CCC(=O)O)C(=O)N[C@H](C(=O)NN(CC(=O)O)C(=O)/C=C/C(=O)N(Cc1ccccc1)Cc1ccccc1)[C@@H](C)O) [Cbz-Leu-Glu-Thr-AAsp-CH═CH-CON(CH2Ph)2]
267000 M⁻¹ s⁻¹,3470 M⁻¹ s⁻¹,31400 M⁻¹ s⁻¹,120 M⁻¹ s⁻¹,655 M⁻¹ s⁻¹,129000 M⁻¹ s⁻¹,1.95e+06 M⁻¹ s⁻¹,,,Cbz-DEV[AAsp]-{CH═CH‑CONHCH2CH2Ph} [Cbz-Asp-Glu-Val-AAsp-CH═CH-CONHCH2CH2Ph]
540 M⁻¹ s⁻¹,13000 M⁻¹ s⁻¹,9000 M⁻¹ s⁻¹,92 M⁻¹ s⁻¹,1660 M⁻¹ s⁻¹,216000 M⁻¹ s⁻¹,12100 M⁻¹ s⁻¹,,,Cbz-LET[AAsp]-{CH═CH‑CO‑tetrahydroquinoline} [Cbz-Leu-Glu-Thr-AAsp-CH═CH-CON-tetrahydroquinoline]
